In patent US20180155413A1 (AstraZeneca / MedImmune, published 2018):

How the values were obtained:
Test in all cases: cell-based or functional assay
[1] = target: HA of B/Ohio/1/2005 (victoria) (influenza B virus)
[2] = target: HA of B/Florida/4/2006 (yamagata) (influenza B virus)
[3] = target: HA of ca B/Ann Arbor/1/66 (influenza B virus)
[4] = target: HA of ca A/Japan/57 (H2N2) (influenza A virus)
[5] = target: HA of A/California/07/2009 (H1N1) (influenza A virus)
[6] = target: HA of B/Wisconsin/5/2013 (victoria) (influenza B virus)
[7] = target: HA of B/Texas/2/2013 (victoria) (influenza B virus)
[8] = target: HA of B/Yamanashi/166/98 (yamagata) (influenza B virus)
[9] = target: HA of A/New York/39/2012 (H3N2) (influenza A virus)
[10] = target: HA of A/Hong Kong/2212/2010 (H1N1) (influenza A virus)
[11] = target: HA of ca A/Panama/2007/99 (H3N2) (influenza A virus)
[12] = target: HA of ca A/Sydney/5/97 (H3N2) (influenza A virus)
HA of B/Lee/40 [13] = target: T1, HA of B/Lee/40 (influenza B virus, UniProt P03460 16-584)
T1 sequence (P03460 16-584 limits assumed): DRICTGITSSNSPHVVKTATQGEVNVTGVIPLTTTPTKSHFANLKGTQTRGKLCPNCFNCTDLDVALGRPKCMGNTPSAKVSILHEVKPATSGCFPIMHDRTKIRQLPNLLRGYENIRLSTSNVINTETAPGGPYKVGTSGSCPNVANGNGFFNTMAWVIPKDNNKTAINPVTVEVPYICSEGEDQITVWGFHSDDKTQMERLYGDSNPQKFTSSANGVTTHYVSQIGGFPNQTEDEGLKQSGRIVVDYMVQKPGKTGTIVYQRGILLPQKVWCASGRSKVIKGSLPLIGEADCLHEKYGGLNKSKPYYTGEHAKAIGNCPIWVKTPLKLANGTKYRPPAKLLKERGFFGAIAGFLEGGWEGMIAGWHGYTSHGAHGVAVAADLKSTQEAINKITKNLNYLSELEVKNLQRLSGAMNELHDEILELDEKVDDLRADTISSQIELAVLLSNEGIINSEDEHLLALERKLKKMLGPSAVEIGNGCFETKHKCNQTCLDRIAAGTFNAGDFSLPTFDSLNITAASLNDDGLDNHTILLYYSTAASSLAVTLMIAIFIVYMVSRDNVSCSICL

[14] = target: HA of A/Shenzhen/227/95 (H1N1) (influenza A virus)
[15] = target: HA of A/Wilson Smith N/33 (H1N1) (influenza A virus, UniProt P03454 18-565)
Sequence of HA of A/Wilson Smith N/33 (H1N1) (P03454 18-565 limits assumed): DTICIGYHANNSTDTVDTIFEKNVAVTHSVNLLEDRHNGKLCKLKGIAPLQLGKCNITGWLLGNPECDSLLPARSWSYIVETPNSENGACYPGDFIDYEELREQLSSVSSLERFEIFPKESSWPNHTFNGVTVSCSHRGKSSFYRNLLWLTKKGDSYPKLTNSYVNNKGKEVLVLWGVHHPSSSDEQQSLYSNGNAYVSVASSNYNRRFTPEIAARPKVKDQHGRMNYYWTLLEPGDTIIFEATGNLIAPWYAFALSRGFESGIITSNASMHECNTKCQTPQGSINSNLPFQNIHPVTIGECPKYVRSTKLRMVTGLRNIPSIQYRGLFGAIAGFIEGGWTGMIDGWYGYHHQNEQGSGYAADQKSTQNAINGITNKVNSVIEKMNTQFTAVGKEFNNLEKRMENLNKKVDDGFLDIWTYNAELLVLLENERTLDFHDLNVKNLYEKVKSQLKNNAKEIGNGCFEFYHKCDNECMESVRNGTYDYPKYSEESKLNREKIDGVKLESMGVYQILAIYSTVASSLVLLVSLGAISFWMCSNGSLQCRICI

[16] = target: HA of B/Malaysia/2506/2004 (victoria) (influenza B virus)
HA of B/Hong Kong/5/72 [17] = target: HA of B/Hong Kong/5/72 (influenza B virus)
[18] = target: HA of ca A/Perth/16/2009 (H3N2) (influenza A virus)
[19] = target: HA of B/Hong Kong/330/2001 (victoria) (influenza B virus)
[20] = target: HA of B/Yamagata/16/88 (yamagata) (influenza B virus)
[21] = target: HA of ca B/Georgia/02/98 (yamagata) (influenza B virus)
[22] = target: HA of B/Ohio/1/2005 (victoria) (influenza B virus); remark: listed apart in the source
[23] = target: HA of B/Florida/4/2006 (yamagata) (influenza B virus); remark: listed apart in the source
[24] = target: HA of ca B/Ann Arbor/1/66 (influenza B virus); remark: listed apart in the source
[25] = target: HA of ca B/Ann Arbor/2/94 (yamagata) (influenza B virus)
[26] = target: HA of ca B/Johannesburg/5/99 (yamagata) (influenza B virus)
[27] = target: HA of ca B/Victoria/504/2000 (yamagata) (influenza B virus)
[28] = target: HA of B/Yamanashi/166/98 (yamagata) (influenza B virus); remark: listed apart in the source
[29] = target: HA of B/Sichuan/379/99 (yamagata) (influenza B virus)
[30] = target: HA of ca B/Brisbane/60/2008 (victoria) (influenza B virus)
[31] = target: HA of B/Shanghai/361/02 (yamagata) (influenza B virus)
HA of B/Lee/40 [32] = target: T1, HA of B/Lee/40; remark: listed apart in the source
[33] = target: HA of B/Malaysia/2506/2004 (victoria) (influenza B virus); remark: listed apart in the source
HA of B/Hong Kong/5/72 [34] = target: HA of B/Hong Kong/5/72 (influenza B virus); remark: listed apart in the source
[35] = target: HA of ca B/Beijing/243/97 (victoria) (influenza B virus)
[36] = target: HA of B/Hong Kong/330/2001 (victoria) (influenza B virus); remark: listed apart in the source
[37] = target: HA of B/Yamagata/16/88 (yamagata) (influenza B virus); remark: listed apart in the source
[38] = target: HA of ca B/Georgia/02/98 (yamagata) (influenza B virus); remark: listed apart in the source
[39] = target: HA protein derived from A/South Dakota/6/2007 H1N1, on stably transfected MDCK cells (influenza A virus)
[40] = target: HA protein derived from A/Hong Kong/8/68 H3N2, on stably transfected MDCK cells (influenza A virus)
[41] = target: HA of A/California/07/2009 (H1N1) (influenza A virus); remark: listed apart in the source
[42] = target: HA of A/Hong Kong/8/68 (H3N2) (influenza A virus)

B1: GL20/39 BiS4 100/44 (bispecific antibody)
light: DIQMTQSPSSLSASVGDRVTITCRTSQSLSSYTHWYQQKPGKAPKLLIYAASSRGSGVPSRFSGSGSGTDFTLTISSLQPEDFATYYCQQSRTFGQGTKVEIKRTVAAPSVFIFPPSDEQLKSGTASVVCLLNNFYPREAKVQWKVDNALQSGNSQESVTEQDSKDSTYSLSSTLTLSKADYEKHKVYACEVTHQGLSSPVTKSFNRGEC
heavy: not shown
Neutralization (IC50) [1]: 18.7 nM
Neutralization (IC50) [2]: 1.4 nM
Neutralization (IC50) [3]: 12.8 nM
Neutralization (IC50) [4]: 5.3 nM
Neutralization (IC50) [5]: 10.9 nM
Neutralization (IC50) [6]: 14.5 nM
Neutralization (IC50) [7]: 13.8 nM
Neutralization (IC50) [8]: 0.3 nM
Neutralization (IC50) [9]: 0.5 nM
Neutralization (IC50) [10]: 0.4 nM
Neutralization (IC50) [11]: 28.5 nM
Neutralization (IC50) [12]: 22.6 nM
Neutralization (IC50) (HA of B/Lee/40 [13]): 1 nM
Neutralization (IC50) [14]: 7.9 nM
Neutralization (IC50) [15]: 9.5 nM
Neutralization (IC50) [16]: 33 nM
Neutralization (IC50) (HA of B/Hong Kong/5/72 [17]): 5.7 nM
Neutralization (IC50) [18]: 4 nM
Neutralization (IC50) [19]: 66.9 nM
Neutralization (IC50) [20]: 1.3 nM
Neutralization (IC50) [21]: 1 nM
Hemagglutination Inhibition Titer [22]: 244 nM
Hemagglutination Inhibition Titer [23]: 61 nM
Hemagglutination Inhibition Titer [24]: 244 nM
Hemagglutination Inhibition Titer [25]: 61 nM
Hemagglutination Inhibition Titer [26]: 122 nM
Hemagglutination Inhibition Titer [27]: 61 nM
Hemagglutination Inhibition Titer [28]: 122 nM
Hemagglutination Inhibition Titer [29]: 122 nM
Hemagglutination Inhibition Titer [30]: 244 nM
Hemagglutination Inhibition Titer [31]: 91 nM
Hemagglutination Inhibition Titer (HA of B/Lee/40 [32]): 61 nM
Hemagglutination Inhibition Titer [33]: 244 nM
Hemagglutination Inhibition Titer (HA of B/Hong Kong/5/72 [34]): 244 nM
Hemagglutination Inhibition Titer [35]: 91 nM
Hemagglutination Inhibition Titer [36]: 244 nM
Hemagglutination Inhibition Titer [37]: 122 nM
Hemagglutination Inhibition Titer [38]: 122 nM

B2: GL20 IgG (antibody, V domains shown)
VH: QVQLQQSGPGLVKPSQTLSLTCAISGDSVSSYNAVWNWIRQSPSRGLEWLGRTYYRSGWYNDYAESVKSRITINPDTSKNQFSLQLNSVTPEDTAVYYCARSGHITVFGVNVDAFDMWGQGTMVTVSS
VL: DIQMTQSPSSLSASVGDRVTITCRTSQSLSSYTHWYQQKPGKAPKLLIYAASSRGSGVPSRFSGSGSGTDFTLTISSLQPEDFATYYCQQSRTFGQGTKVEIK
Neutralization (IC50) [4]: 5 nM
Neutralization (IC50) [5]: 10.2 nM
Neutralization (IC50) [11]: 44.2 nM
Neutralization (IC50) [12]: 32.1 nM
Neutralization (IC50) [14]: 9.3 nM
Neutralization (IC50) [15]: 7.6 nM
Neutralization (IC50) [18]: 4.2 nM
EC50 (read off the curve), ADCP % double positive [39]: ~0.04 nM
EC50 (read off the curve), ADCP % double positive [40]: ~0.04 nM
ADCC: NK cell killing of infected A549 cells (LDH release), IC50 [41]: 0.024 nM
ADCC: NK cell killing of infected A549 cells (LDH release), IC50 [42]: 0.018 nM
